Experimental data published in US20210154165.

Biological target: ARID1A (endogenous, ARID1A-wildtype cancer cell lysate) (UniProt O14497)
Sequence of UniProt O14497 (O14497 whole entry, looked up): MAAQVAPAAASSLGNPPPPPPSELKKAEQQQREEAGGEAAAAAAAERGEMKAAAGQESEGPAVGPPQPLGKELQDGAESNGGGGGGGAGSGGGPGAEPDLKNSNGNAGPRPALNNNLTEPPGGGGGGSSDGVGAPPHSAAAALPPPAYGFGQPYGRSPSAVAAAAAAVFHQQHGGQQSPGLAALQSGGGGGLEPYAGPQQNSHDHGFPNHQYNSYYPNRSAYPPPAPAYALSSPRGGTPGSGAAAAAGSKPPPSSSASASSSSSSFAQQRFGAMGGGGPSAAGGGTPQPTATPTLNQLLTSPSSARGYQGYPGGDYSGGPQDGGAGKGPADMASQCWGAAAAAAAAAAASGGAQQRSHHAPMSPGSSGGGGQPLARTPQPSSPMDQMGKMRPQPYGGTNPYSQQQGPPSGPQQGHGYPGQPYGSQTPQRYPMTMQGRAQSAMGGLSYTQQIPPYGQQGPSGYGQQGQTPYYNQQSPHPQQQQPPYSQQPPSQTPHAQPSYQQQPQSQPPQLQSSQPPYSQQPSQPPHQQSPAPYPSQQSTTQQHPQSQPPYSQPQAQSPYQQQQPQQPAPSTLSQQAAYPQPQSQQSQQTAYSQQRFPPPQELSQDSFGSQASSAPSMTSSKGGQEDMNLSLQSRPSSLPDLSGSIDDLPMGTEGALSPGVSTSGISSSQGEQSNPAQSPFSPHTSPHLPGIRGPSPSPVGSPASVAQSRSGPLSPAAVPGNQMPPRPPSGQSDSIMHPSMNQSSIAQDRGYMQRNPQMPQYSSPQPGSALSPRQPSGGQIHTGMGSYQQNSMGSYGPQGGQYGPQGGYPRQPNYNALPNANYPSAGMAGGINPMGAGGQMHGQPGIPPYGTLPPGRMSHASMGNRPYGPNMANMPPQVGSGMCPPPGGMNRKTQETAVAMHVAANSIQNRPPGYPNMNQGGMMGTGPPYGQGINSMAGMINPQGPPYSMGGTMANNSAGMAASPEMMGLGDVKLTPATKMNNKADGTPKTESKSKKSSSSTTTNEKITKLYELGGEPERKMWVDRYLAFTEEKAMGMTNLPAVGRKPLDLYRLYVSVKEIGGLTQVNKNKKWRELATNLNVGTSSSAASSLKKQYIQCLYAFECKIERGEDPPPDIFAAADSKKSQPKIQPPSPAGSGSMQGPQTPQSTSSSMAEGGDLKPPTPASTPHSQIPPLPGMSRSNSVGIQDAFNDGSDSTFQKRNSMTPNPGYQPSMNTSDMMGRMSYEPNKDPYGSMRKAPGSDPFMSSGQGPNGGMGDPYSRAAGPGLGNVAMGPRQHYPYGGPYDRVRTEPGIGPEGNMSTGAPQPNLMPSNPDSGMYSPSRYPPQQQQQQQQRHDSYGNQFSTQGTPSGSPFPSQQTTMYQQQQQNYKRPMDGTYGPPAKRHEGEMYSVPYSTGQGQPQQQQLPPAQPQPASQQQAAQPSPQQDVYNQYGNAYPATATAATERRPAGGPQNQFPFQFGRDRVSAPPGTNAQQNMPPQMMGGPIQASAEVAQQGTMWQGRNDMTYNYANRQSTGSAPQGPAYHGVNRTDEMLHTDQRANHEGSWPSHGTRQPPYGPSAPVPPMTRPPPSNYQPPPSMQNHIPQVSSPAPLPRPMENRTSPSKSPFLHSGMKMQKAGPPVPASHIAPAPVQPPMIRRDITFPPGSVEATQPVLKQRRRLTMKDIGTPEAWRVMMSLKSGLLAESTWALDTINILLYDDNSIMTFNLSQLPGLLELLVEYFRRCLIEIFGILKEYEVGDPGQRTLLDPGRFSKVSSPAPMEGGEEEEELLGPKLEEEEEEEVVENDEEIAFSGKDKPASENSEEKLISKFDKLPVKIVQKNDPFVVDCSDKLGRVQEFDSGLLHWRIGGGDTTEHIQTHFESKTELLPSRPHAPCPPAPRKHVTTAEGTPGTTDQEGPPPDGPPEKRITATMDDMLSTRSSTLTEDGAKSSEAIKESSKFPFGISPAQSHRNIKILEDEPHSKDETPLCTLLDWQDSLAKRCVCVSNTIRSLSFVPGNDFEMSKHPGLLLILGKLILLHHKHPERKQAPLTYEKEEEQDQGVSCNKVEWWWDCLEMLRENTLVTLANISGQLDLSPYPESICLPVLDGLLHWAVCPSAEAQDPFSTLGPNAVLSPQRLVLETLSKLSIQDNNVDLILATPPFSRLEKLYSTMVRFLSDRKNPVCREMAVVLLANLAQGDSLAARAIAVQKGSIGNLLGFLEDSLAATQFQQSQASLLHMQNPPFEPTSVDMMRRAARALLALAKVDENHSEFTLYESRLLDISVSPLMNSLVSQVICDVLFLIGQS

## Carbamoyl-phosphate synthetase 2, Aspartate transcarbamoylase, and Dihydroorotase (CAD) (endogenous)
  total CAD and phosphorylated CAD (Serine-1859) protein levels by immunoblot after ARID1A knockdown or restoration: wildtype ARID1A functions as a negative regulator of CAD, wherein ARID1A deficiency results in an increase in total and phosphorylated CAD
